Changes are numbered by the printed parent chain. In names and notes the source's numbering stands. Each block holds one binder with its values, some of them ahead of it.
How the values were obtained:
[1] = target: T1, human TLT-1 on activated platelets (human, UniProt Q86YW5 16-311); test: cell-based or functional assay
T1 sequence: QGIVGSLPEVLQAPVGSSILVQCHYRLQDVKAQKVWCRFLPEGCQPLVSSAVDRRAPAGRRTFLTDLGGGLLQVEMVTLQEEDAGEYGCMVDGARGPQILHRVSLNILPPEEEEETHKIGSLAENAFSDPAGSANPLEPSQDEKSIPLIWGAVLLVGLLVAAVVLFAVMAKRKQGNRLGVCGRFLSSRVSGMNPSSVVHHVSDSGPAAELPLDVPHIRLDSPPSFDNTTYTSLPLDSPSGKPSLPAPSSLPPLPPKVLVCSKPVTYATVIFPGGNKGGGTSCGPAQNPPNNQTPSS

[2] = target: T2, hTLT-1 ECD-HPC4 L42A (human, UniProt Q86YW5 16-162); test: SPR ProteOn, mAb captured by anti-hFc, 100 nM mutant, signal 10 s after injection
T2 construct: Built as m17; also called Ala mutant 8
T2 chain: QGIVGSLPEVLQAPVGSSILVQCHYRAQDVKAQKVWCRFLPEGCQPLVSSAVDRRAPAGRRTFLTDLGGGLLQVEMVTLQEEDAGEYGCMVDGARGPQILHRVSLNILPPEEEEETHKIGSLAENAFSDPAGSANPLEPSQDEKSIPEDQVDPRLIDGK
Method: (§1) Each antibody was diluted in 10 mM sodium acetate pH 5.0 to a concentration of 50 μg/ml, and was immobilized to an individual flow cell at 30 μl/min for 240 s. The antibodies were immobilized to flow cells A1-A6 (horizontal direction). After immobilization, the active sites on the flow cell were blocked with 1 M ethanolamine. The final immobilization level of capture antibody typically ranged from approximately 9,000 to 10,000 RU in one experiment. Capture of the anti-TLT-1 antibodies mAb0023, mAb0051, mAb0061 and mAb0062 was conducted by diluting to 0.5 μg/ml into HBS-EP buffer (10 mM HEPES, 150 mM NaCl, 3 mM EDTA, 0.05% surfactant P20, pH 7.4) and injected at 30 μl/min for 60 s in vertical direction, creating interspot reference points with only anti-human Fc antibodies.
(§2) The final capture level of test antibodies typically ranged from approximately 200 to 300 RU in one experiment. Binding of wt or Ala mutant hTLT-1 ECD-HPC4 protein was conducted by injecting over parallel flow cells in horizontal direction to allow for comparative analyses of binding to different captured anti-TLT-1 antibodies relative to binding to the interspot references. Each hTLT-1 ECD-HPC4 protein was diluted to 100 nM, based on the calculated average Mw, into HBS-EP buffer and injected at 30 μl/min for 240 s. The GLM chip was regenerated after each injection cycle of analyte via one 18 s injection of 1 M Formic acid followed by a 18s injection of 50 mM NaOH at 100 μl/min. This regeneration step removed the anti-TLT-1 antibody and any bound TLT-1 from the immobilized capture antibody surface, and allowed for the subsequent binding of the next test sample pair.
(§3) Data analysis was performed using the ProteOn Manager™ Software. No significant non-specific binding to the interspot control surfaces was observed. Binding curves were processed by double referencing (subtraction of interspot control surface signals as well as blank buffer injections over captured anti-TLT-1 antibodies). This allowed correction for instrument noise, bulk shift and drift during sample injections. Binding signal at 10 s after stop of analyte injection was normalized to level of captured anti-TLT-1 antibody and presented as binding relative to wt hTLT-1 ECD-HPC4 protein.

[3] = target: T3, hTLT-1 ECD-HPC4 H116A (human, UniProt Q86YW5 16-162); test: as above
T3 construct: Built as m17; also called Ala mutant 31
T3 chain: T2 chain with A27L, H101A
Method: as §1, §2, §3

[4] = target: T4, hTLT-1 ECD-HPC4 R41A (human, UniProt Q86YW5 16-162); test: as above
T4 construct: Built as m17; also called Ala mutant 7
T4 chain: T2 chain with R26A, A27L
Method: as §1, §2, §3

[5] = target: T5, hTLT-1 ECD-HPC4 R110A (human, UniProt Q86YW5 16-162); test: as above
T5 construct: Built as m17; also called Ala mutant 30
T5 chain: T2 chain with A27L, R95A
Method: as §1, §2, §3

[6] = target: T6, hTLT-1 ECD-HPC4 F54A (human, UniProt Q86YW5 16-162); test: as above
T6 construct: Built as m17; also called Ala mutant 12
T6 chain: T2 chain with A27L, F39A
Method: as §1, §2, §3

[7] = target: T7, hTLT-1 ECD-HPC4 Q43A (human, UniProt Q86YW5 16-162); test: as above
T7 construct: Built as m17; also called Ala mutant 9
T7 chain: T2 chain with A27L, Q28A
Method: as §1, §2, §3

[8] = target: T8, hTLT-1 ECD-HPC4 M91A (human, UniProt Q86YW5 16-162); test: as above
T8 construct: Built as m17; also called Ala mutant 24
T8 chain: T2 chain with A27L, M76A
Method: as §1, §2, §3

[9] = target: T9, hTLT-1 ECD-His (human, UniProt Q86YW5 16-162); test: SPR Biacore, mAb immobilised directly, TLT-1 as analyte
T9 construct: Extracellular domain of human TLT-1 with C-terminal His-6 tag; the range 16-168 is computed from these; also called TLT-1-His; His tagged human TLT1
T9 sequence: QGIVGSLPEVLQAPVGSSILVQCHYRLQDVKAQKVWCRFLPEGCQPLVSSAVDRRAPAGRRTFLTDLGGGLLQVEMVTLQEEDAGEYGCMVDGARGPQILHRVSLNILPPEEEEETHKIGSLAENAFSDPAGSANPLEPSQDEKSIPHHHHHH
Method: Method: The mAbs of interest were either immobilized directly to a CM5 chip or by capture via a human Fc capture mAb immobilized to a CM5 chip, while TLT-1-His was immobilized by capture via an anti-His mAb CM5 chip for analysis of Fabs.
mAb direct capture: The TLT-1 mAbs were immobilised to a level of approx 500-1000 RU on a CM5 chip (50 μg/ml diluted in Na-acetate, pH 4.0) using the standard procedure recommended by the supplier. Two-fold dilutions of TLT-1 from 200 nM to 0.2 nM were tested for binding to the mAbs. Running and dilution buffer: 10 mM HEPES, 150 mM, 0.005% p20, pH 7.4. Regeneration was obtained by 10 mM Glycine, pH 1.7. mAb capture via human Fc mAb: Human Fc mAb was immobilised to approx 10.000 RU. The mAb of interest was added (approx 100 nM). Two-fold dilutions of TLT-1 from 200 nM to 0.2 nM were tested. Running and dilution buffer: 10 mM HEPES, 150 mM, 0.005% p20, pH 7.4. Regeneration was obtained in 3 M MgCl₂.

[10] = target: T10, hTLT-1 ECD-HPC4 S119A (human, UniProt Q86YW5 16-162); test: SPR ProteOn, mAb captured by anti-hFc, 100 nM mutant, signal 10 s after injection
T10 construct: Built as m17; also called Ala mutant 33
T10 chain: T2 chain with A27L, S104A
Method: as §1, §2, §3

[11] = target: T11, hTLT-1 ECD-HPC4 R117A (human, UniProt Q86YW5 16-162); test: as above
T11 construct: Built as m17; also called Ala mutant 32
T11 chain: T2 chain with A27L, R102A
Method: as §1, §2, §3

B1: FVIIa-Fab1001 (other)
heavy: EVKLLESGGGLVQPGGSLKLSCAASGFDFSRYWMTWVRQAPGKGLEWIGEINPDSSTINYNPSLKDKFIISRDNAKNTLYLQMSEVRSEDTALYYCASGVFTSWGQGTLVTVSAASTKGPSVFPLAPCSRSTSESTAALGCLVKDYFPEPVTVSWNSGALTSGVHTFPAVLQSSGLYSLSSVVTVPSSSLGTKTYTCNVDHKPSNTKVDKRVESKYGPPC
light: DVVMTQTPLSLPVSLGDQASISCRSSQSLVHRNGNTYFHWALQKPGQSPKLLIYKVSNRFSGVPDRFSGSGSGTDFTLKISRVEAEDLGVYFCSQSTHVPYTFGGGTKLEIKRTVAAPSVFIFPPSDEQLKSGTASVVCLLNNFYPREAKVQWKVDNALQSGNSQESVTEQDSKDSTYSLSSTLTLSKADYEKHKVYACEVTHQGLSSPVTKSFNRGECEDQVDPRLIDGK
chain: ANAFLEELRPGSLERECKEEQCSFEEAREIFKDAERTKLFWISYSDGDQCASSPCQNGGSCKDQLQSYICFCLPAFEGRNCETHKDDQLICVNENGGCEQYCSDHTGTKRSCRCHEGYSLLADGVSCTPTVEYPCGKIPILEKRNASKPQGRIVGGKVCPKGECPWQVLLLVNGAQLCGGTLINTIWVVSAAHCFDKIKNWRNLIAVLGEHDLSEHDGDEQSRRVAQVIIPSTYVPGTTNHDIALLRLHQPVVLTDHVVPLCLPERTFSERTLAFVRFSLVSGWGQLLDRGATALELMVLNVPRLMTQDCLQQSRKVGDSPNITEYMFCAGYSDGSKDSCKGDSGGPHATHYRGTWYLTGIVSWGQGCATVGHFGVYTRVSQYIEWLQKLMRSEPRPGVLLRAPFP
modifications: linker attached as sialic acid derivative to an N-linked glycan (ST3Gal-III); gamma-carboxylated Glu in the Gla domain; unpaired hinge Cys (YGPPC) coupled by maleimide to the 3 kDa PEG linker
peak thrombin generation at 25 nM, haemophilia A like platelet rich plasma [1]: ~4 fold compared to rFVIIa (25 nM)

B2: FVIIa-Fab1029 (other)
heavy: B1 heavy
light: B1 light
chain: B1 chain
modifications: linker attached as sialic acid derivative to an N-linked glycan (ST3Gal-III); gamma-carboxylated Glu in the Gla domain; unpaired hinge Cys (YGPPC) coupled by maleimide to the 10 kDa PEG linker
peak thrombin generation at 25 nM, haemophilia A like platelet rich plasma [1]: ~2 fold compared to rFVIIa (25 nM)

Next, values leading:

binding relative to wt hTLT-1 ECD-HPC4 [2]: < 0.6 fraction of wt | binding relative to wt hTLT-1 ECD-HPC4 [3]: < 0.6 fraction of wt | binding relative to wt hTLT-1 ECD-HPC4 [4]: < 0.2 fraction of wt | binding relative to wt hTLT-1 ECD-HPC4 [5]: < 0.2 fraction of wt | binding relative to wt hTLT-1 ECD-HPC4 [6]: < 0.6 fraction of wt | binding relative to wt hTLT-1 ECD-HPC4 [7]: < 0.4 fraction of wt | binding relative to wt hTLT-1 ECD-HPC4 [8]: < 0.4 fraction of wt | Kd [9]: 0.00412 µM | koff [9]: 0.00134 s⁻¹ | kon [9]: 326000 M⁻¹ s⁻¹
B3: mAb0062 (antibody, V domains shown)
VH: QVQLQQSGAEPMKPGASVKISCKATGYTFSSHWIEWIKQRPGHGLEWIGEILPGSGNTNYNEKFKGKATFTADTSSNTAYMQLSSLTSEDSAVYYCARGYYGLNYDWYFDVWGAGTTVTVSS
VL: DIQMTQTTSSLSASLGDRVTISCRASQDISNYLNWYQQKPDGTVKLLIFYTSRLHSGVPSRFSGSGSGTDYSLTISNLEPEDIATYYCQQDTKLPYTFGGGTKLEMKR
notes: Mouse VH/VL, human IgG4 / kappa; variant of mAb0052 (HC C91Y, Kabat); The entries seem to include signal peptides; also called antiTLT-1 0062mab; (0052HC.C91Y)2

binding relative to wt hTLT-1 ECD-HPC4 [10]: < 0.6 fraction of wt | binding relative to wt hTLT-1 ECD-HPC4 [11]: < 0.2 fraction of wt | binding relative to wt hTLT-1 ECD-HPC4 [6]: < 0.4 fraction of wt | binding relative to wt hTLT-1 ECD-HPC4 [8]: < 0.2 fraction of wt | Kd [9]: 0.0193 µM | koff [9]: 0.00472 s⁻¹ | kon [9]: 245000 M⁻¹ s⁻¹
B4: mAb0051 (antibody, V domains shown)
VH: QVQLEQSGAELVRPGVSVKISCKGSGYTFTDYSMHWVKQSHAKSLEWIGVISTYYGDVRYNQKFKGKATMTVDKSSSTAYMALARLTSEDSAIYYCARAPMITTGAWFAYWGQGTLVTVSA
VL: SIVMTQTPKFLLVSAGDRVTITCKASQSVSNDVAWYQQKPGQSPKLLINYASSRYTGIPDRFTGSGYGTDFTFTISTVQAEDLAVYFCQQDYSSPYTFGGGTKLEIER
notes: Mouse VH/VL, human IgG4 / kappa; The entries seem to include signal peptides; also called antiTLT-1 0051mab

From patent publication US20190083587A1 (Novo Nordisk, published 2019)
